# In patent publication US20070098721A1:
# Columns and labels:
# Test in all cases: dot blot, antigen dilution series on nitrocellulose
# [1] = molecular target: Aβ(1-42) oligomers B (human amyloid β(1-42) oligomers having molecular weights of 38 kDa and 48 kDa; preparation of example 6b) (human) (UniProt P05067)
# [2] = molecular target: HFIP-treated Aβ(1-42) monomer of example 1a (human amyloid β(1-42) protein) (human)
# [3] = molecular target: Aβ(1-42) fibril preparation of example 27 (human) (UniProt P05067)
# Aβ(1-42) fibril preparation of example 27 (human), sequence (P05067 672-713 limits assumed): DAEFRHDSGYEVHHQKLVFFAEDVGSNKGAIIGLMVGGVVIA
# Aβ(1-42) oligomers B (human amyloid β(1-42) oligomers having molecular weights of 38 kDa and 48 kDa; preparation of example 6b) (human), sequence (P05067 672-713 limits assumed): as above
# HFIP-treated Aβ(1-42) monomer of example 1a (human amyloid β(1-42) protein) (human), sequence (peptide, as listed by the source): as the sequence (P05067 672-713 limits assumed) above
substance,measurement,setting,value
monoclonal antibody 6E10 (Signet),minimum amount of antigen visible (detection limit),[1],0.1 pmol
same,minimum amount of antigen visible (detection limit),[2],0.1 pmol
same,minimum amount of antigen visible (detection limit),[3],1 pmol
